Test results taken from patent US20120244166A1 (published 2012).

biological target: gp41 MPER peptide (residues 657 to 669 of gp41 linked to a C-terminal C9 tag); assay: SPR

| Binder | Kd |
| --- | --- |
| 2F5 L100AS-V100DS (antibody, V domains shown) VH: RITLKESGPPLVKPTQTLTLTCSFSGFSLSDFGVGVGWIRQPPGKALEWLAIIYSDDDKRYSPSLNTRLTITKDTSKNQVVLVMTRVSPVDTATYFCAHRRGPTTSFGSPIARGPVNAMDVWGQGITVTISS VL: ALQLTQSPSSLSASVGDRITITCRASQGVTSALAWYRQKPGSPPQLLIYDASSLESGVPSRFSGSGSGTEFTLTISTLRPEDFATYYCQQLHFYPHTFGGGTRVDVRR | 36.7 nM |
| 2F5 F100BS-I100FS (antibody, V domains shown) VH: RITLKESGPPLVKPTQTLTLTCSFSGFSLSDFGVGVGWIRQPPGKALEWLAIIYSDDDKRYSPSLNTRLTITKDTSKNQVVLVMTRVSPVDTATYFCAHRRGPTTLSGVPSARGPVNAMDVWGQGITVTISS VL: ALQLTQSPSSLSASVGDRITITCRASQGVTSALAWYRQKPGSPPQLLIYDASSLESGVPSRFSGSGSGTEFTLTISTLRPEDFATYYCQQLHFYPHTFGGGTRVDVRR | 46.9 nM |
| 2F5 L100AW (antibody, V domains shown) VH: RITLKESGPPLVKPTQTLTLTCSFSGFSLSDFGVGVGWIRQPPGKALEWLAIIYSDDDKRYSPSLNTRLTITKDTSKNQVVLVMTRVSPVDTATYFCAHRRGPTTWFGVPIARGPVNAMDVWGQGITVTISS VL: ALQLTQSPSSLSASVGDRITITCRASQGVTSALAWYRQKPGSPPQLLIYDASSLESGVPSRFSGSGSGTEFTLTISTLRPEDFATYYCQQLHFYPHTFGGGTRVDVRR | 11.3 nM |
| 2F5 (antibody, V domains shown) VH: RITLKESGPPLVKPTQTLTLTCSFSGFSLSDFGVGVGWIRQPPGKALEWLAIIYSDDDKRYSPSLNTRLTITKDTSKNQVVLVMTRVSPVDTATYFCAHRRGPTTLFGVPIARGPVNAMDVWGQGITVTISS VL: ALQLTQSPSSLSASVGDRITITCRASQGVTSALAWYRQKPGSPPQLLIYDASSLESGVPSRFSGSGSGTEFTLTISTLRPEDFATYYCQQLHFYPHTFGGGTRVDVRR | 9.5 nM |
| 2F5 F100BW (antibody, V domains shown) VH: RITLKESGPPLVKPTQTLTLTCSFSGFSLSDFGVGVGWIRQPPGKALEWLAIIYSDDDKRYSPSLNTRLTITKDTSKNQVVLVMTRVSPVDTATYFCAHRRGPTTLWGVPIARGPVNAMDVWGQGITVTISS VL: ALQLTQSPSSLSASVGDRITITCRASQGVTSALAWYRQKPGSPPQLLIYDASSLESGVPSRFSGSGSGTEFTLTISTLRPEDFATYYCQQLHFYPHTFGGGTRVDVRR | 11.2 nM |
| 2F5 L100AW-V100DW (antibody, V domains shown) VH: RITLKESGPPLVKPTQTLTLTCSFSGFSLSDFGVGVGWIRQPPGKALEWLAIIYSDDDKRYSPSLNTRLTITKDTSKNQVVLVMTRVSPVDTATYFCAHRRGPTTWFGWPIARGPVNAMDVWGQGITVTISS VL: ALQLTQSPSSLSASVGDRITITCRASQGVTSALAWYRQKPGSPPQLLIYDASSLESGVPSRFSGSGSGTEFTLTISTLRPEDFATYYCQQLHFYPHTFGGGTRVDVRR | 12.8 nM |
| 2F5 V100DW (antibody, V domains shown) VH: RITLKESGPPLVKPTQTLTLTCSFSGFSLSDFGVGVGWIRQPPGKALEWLAIIYSDDDKRYSPSLNTRLTITKDTSKNQVVLVMTRVSPVDTATYFCAHRRGPTTLFGWPIARGPVNAMDVWGQGITVTISS VL: ALQLTQSPSSLSASVGDRITITCRASQGVTSALAWYRQKPGSPPQLLIYDASSLESGVPSRFSGSGSGTEFTLTISTLRPEDFATYYCQQLHFYPHTFGGGTRVDVRR | 11.9 nM |
| 2F5 L100AS (antibody, V domains shown) VH: RITLKESGPPLVKPTQTLTLTCSFSGFSLSDFGVGVGWIRQPPGKALEWLAIIYSDDDKRYSPSLNTRLTITKDTSKNQVVLVMTRVSPVDTATYFCAHRRGPTTSFGVPIARGPVNAMDVWGQGITVTISS VL: ALQLTQSPSSLSASVGDRITITCRASQGVTSALAWYRQKPGSPPQLLIYDASSLESGVPSRFSGSGSGTEFTLTISTLRPEDFATYYCQQLHFYPHTFGGGTRVDVRR | 10.8 nM |
| 2F5 F100BS (antibody, V domains shown) VH: RITLKESGPPLVKPTQTLTLTCSFSGFSLSDFGVGVGWIRQPPGKALEWLAIIYSDDDKRYSPSLNTRLTITKDTSKNQVVLVMTRVSPVDTATYFCAHRRGPTTLSGVPIARGPVNAMDVWGQGITVTISS VL: ALQLTQSPSSLSASVGDRITITCRASQGVTSALAWYRQKPGSPPQLLIYDASSLESGVPSRFSGSGSGTEFTLTISTLRPEDFATYYCQQLHFYPHTFGGGTRVDVRR | 11.9 nM |
| 2F5 I100FS (antibody, V domains shown) VH: RITLKESGPPLVKPTQTLTLTCSFSGFSLSDFGVGVGWIRQPPGKALEWLAIIYSDDDKRYSPSLNTRLTITKDTSKNQVVLVMTRVSPVDTATYFCAHRRGPTTLFGVPSARGPVNAMDVWGQGITVTISS VL: ALQLTQSPSSLSASVGDRITITCRASQGVTSALAWYRQKPGSPPQLLIYDASSLESGVPSRFSGSGSGTEFTLTISTLRPEDFATYYCQQLHFYPHTFGGGTRVDVRR | 27.3 nM |
| 2F5 V100DS (antibody, V domains shown) VH: RITLKESGPPLVKPTQTLTLTCSFSGFSLSDFGVGVGWIRQPPGKALEWLAIIYSDDDKRYSPSLNTRLTITKDTSKNQVVLVMTRVSPVDTATYFCAHRRGPTTLFGSPIARGPVNAMDVWGQGITVTISS VL: ALQLTQSPSSLSASVGDRITITCRASQGVTSALAWYRQKPGSPPQLLIYDASSLESGVPSRFSGSGSGTEFTLTISTLRPEDFATYYCQQLHFYPHTFGGGTRVDVRR | 14.3 nM |
| 2F5 L100AS-F100BS (antibody, V domains shown) VH: RITLKESGPPLVKPTQTLTLTCSFSGFSLSDFGVGVGWIRQPPGKALEWLAIIYSDDDKRYSPSLNTRLTITKDTSKNQVVLVMTRVSPVDTATYFCAHRRGPTTSSGVPIARGPVNAMDVWGQGITVTISS VL: ALQLTQSPSSLSASVGDRITITCRASQGVTSALAWYRQKPGSPPQLLIYDASSLESGVPSRFSGSGSGTEFTLTISTLRPEDFATYYCQQLHFYPHTFGGGTRVDVRR | 10.9 nM |

biological target: Du156.12; assay: ELISA

| Binder | EC50 |
| --- | --- |
| 2 (Heavy chain: G54S) (antibody, V domains shown) VH: QVQLVQSGGQMKKPGESMRISCRASGYEFIDCTLNWIRLAPGKRPEWMGWLKPRGGAVNYARPLQGRVTMTRDVYSDTAFLELRSLTVDDTAVYFCTRGKNCDYNWDFEHWGRGTPVIVSS VL: EIVLTQSPGTLSLSPGETAIISCRTSQYGSLAWYQQRPGQAPRLVIYSGSTRAAGIPDRFSGSRWGPDYNLTISNLESGDFGVYYCQQYEFFGQGTKVQVDI | 0.072 µg/mL |
| C32AC98S (antibody, V domains shown) VH: QVQLVQSGGQMKKPGESMRISCRASGYEFIDSTLNWIRLAPGKRPEWMGWLKPRGGAVNYARPLQGRVTMTRDVYSDTAFLELRSLTVDDTAVYFCTRGKNADYNWDFEHWGRGTPVIVSS VL: EIVLTQSPGTLSLSPGETAIISCRTSQYGSLAWYQQRPGQAPRLVIYSGSTRAAGIPDRFSGSRWGPDYNLTISNLESGDFGVYYCQQYEFFGQGTKVQVDI | 0.048 µg/mL |
| Insertion-AA (antibody, V domains shown) VH: QVQLVQSGGQMKKPGESMRISCRASGYEFIDCTLNWIRLAPGKRPEWMGWLKPRGGAVNYARPLQGRVTMTRDVYSDTAFLELRSLTVDDTAVYFCTRGKNCDYNWDFEHWGRGTPVIVSS VL: EIVLTQSPGTLSLSPGETAIISCRTSQYGSAALAWYQQRPGQAPRLVIYSGSTRAAGIPDRFSGSRWGPDYNLTISNLESGDFGVYYCQQYEFFGQGTKVQVDI | 2.02 µg/mL |
